B1: A2-5D10: anti-α5β1 antibody, VH SEQ ID NO:51, VL SEQ ID NO:52 (antibody, V domains shown)
VH: QVQLKESGPGLVAPSQSLSITCTISGFSLTSYGVHWVRQPPGKGLEWLVVIWSDGSTTYNSTLKSRLSISKDNSKSQVFLKMNSLQTDDTAMYYCARHYDYDGDWFAYWGQGTLVTVSA
VL: QILLTQSPAIMSASLGERVTMTCTASSSVSSRCLHWYQQKPGSSPKLWIYSTSNLASGVPARFRGSGSGTSYSLTISSMEAEDAATYYCHQYYRSPPTFGGGTKLEIK
modifications: A2-5D10 VH Sequence; A2-5D10 VL Sequence
B2: A2-7F01: anti-α5β1 antibody, VH SEQ ID NO:91, VL SEQ ID NO:92 (antibody, V domains shown)
VH: QVQLQQPGAELVKPGASVKLSCKASGYTFTIYWINWVKQRPGQGLEWIGNIYPGSSSTNYNEKFKTKATLTVDTSSSTAYMQLSSLTSDDSAVYYCAITGTGGFAYWGQGTLVTVSA
VL: ENVLTQSPAIMSASLGEKVTMSCRASSSVNYMYWYQQKSDASPKLWIYFTSSLAPGVPTRFSGSGSGNSFSLTISSMEGEDAATYYCQQLTGSPFTFGSGTRLEIK
modifications: A2-7F01 VH Sequence; A2-7F01 VL Sequence

Assays:
rh-α5β1 = rh-α5β1 (Homo sapiens, UniProt P05556+P08648); experiment: Competition binding studies by Biolayer Interferometry (epitope groups); settings: for Response (nm) / % Response: secondary mAb pre-mixed with 20 nM rh-α5β1; for % Response: relative to antigen alone; for epitope group: two epitope groups among 6 antibodies
rh-α5β1, sequence (P08648 42-894 limits assumed): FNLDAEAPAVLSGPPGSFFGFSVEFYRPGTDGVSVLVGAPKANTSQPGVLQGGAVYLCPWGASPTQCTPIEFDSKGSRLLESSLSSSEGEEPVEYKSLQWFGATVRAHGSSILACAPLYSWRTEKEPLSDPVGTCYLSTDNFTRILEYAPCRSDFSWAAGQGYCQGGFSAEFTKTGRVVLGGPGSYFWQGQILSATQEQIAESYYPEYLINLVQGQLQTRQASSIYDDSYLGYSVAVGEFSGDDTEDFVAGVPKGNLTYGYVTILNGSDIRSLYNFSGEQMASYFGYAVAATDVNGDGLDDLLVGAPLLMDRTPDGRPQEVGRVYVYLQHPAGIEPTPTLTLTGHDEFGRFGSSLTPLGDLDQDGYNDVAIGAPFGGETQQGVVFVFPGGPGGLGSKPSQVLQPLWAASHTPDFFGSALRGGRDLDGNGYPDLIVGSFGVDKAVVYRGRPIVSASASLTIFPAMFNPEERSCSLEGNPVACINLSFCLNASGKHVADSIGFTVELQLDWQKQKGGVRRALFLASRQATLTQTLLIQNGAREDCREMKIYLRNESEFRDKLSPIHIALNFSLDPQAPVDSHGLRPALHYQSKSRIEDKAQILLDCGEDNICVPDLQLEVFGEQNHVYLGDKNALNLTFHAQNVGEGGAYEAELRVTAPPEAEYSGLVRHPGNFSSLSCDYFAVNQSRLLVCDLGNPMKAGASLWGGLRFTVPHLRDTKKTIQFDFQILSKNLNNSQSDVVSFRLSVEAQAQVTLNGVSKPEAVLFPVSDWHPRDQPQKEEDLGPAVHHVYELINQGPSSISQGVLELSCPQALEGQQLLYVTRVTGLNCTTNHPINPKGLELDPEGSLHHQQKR
rh-α5β1, sequence (P08648 895-995 limits assumed): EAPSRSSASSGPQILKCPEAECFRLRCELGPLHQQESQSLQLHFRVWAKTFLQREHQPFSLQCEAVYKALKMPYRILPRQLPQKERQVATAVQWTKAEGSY
rh-α5β1, sequence (P05556 21-728 limits assumed): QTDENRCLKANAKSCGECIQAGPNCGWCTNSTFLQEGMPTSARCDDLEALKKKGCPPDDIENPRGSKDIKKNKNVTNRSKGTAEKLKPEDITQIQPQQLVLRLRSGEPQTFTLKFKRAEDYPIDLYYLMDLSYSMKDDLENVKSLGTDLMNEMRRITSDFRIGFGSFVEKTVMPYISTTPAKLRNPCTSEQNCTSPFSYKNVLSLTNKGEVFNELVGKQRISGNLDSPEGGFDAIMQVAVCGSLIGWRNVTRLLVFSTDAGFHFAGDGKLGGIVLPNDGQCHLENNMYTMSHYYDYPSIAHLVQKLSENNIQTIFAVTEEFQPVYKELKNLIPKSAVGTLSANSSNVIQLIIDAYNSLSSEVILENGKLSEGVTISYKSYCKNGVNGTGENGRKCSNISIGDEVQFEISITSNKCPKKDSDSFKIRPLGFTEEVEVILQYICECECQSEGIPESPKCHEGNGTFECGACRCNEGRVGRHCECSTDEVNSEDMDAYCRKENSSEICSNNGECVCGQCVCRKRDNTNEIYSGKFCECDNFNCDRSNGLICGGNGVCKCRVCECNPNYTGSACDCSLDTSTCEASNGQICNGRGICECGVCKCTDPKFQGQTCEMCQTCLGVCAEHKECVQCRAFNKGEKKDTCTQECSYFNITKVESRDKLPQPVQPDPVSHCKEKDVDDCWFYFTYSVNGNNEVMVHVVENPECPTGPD
Procedure: Epitope analysis via competition binding studies was performed using Biolayer Interferometry (BLI) on the 6 antibodies selected as described in Example 5. The anti-α5β1 FN blocking antibodies A2-7A05, C-14D12 and A-15B08 were immobilized on sensors and incubated with each of the other antibodies that had been preincubated with rh-α5β1, to determine whether this antibody-antigen association prevents or allows binding to the antibody on the sensor. The magnitude of observed binding (response) was compared to binding of antigen alone under the same conditions. If the overall response was greater than 120% of antigen binding alone, then the antibodies can pair with each other. If response was less than 80% of response of antigen binding alone, then the antibodies block each other. The protocol was as follows: preincubate the panel of antibodies with antigen (1 hr). Equilibrate the sensor (30 seconds (s))-->Load lead Ab on the sensor (700s)--->Quench (480s)--->Read baseline (480s)-->measure preincubated Ab+Ag association with loaded sensor (600s).

[1] = molecular target: T1, recombinant human α5β1 integrin (rh-α5β1) (Homo sapiens, UniProt P05556+P08648); experiment: Plate-based ELISA reactivity to rh-α5β1; assay type: binding; settings: selected for further characterization among α5 specific hybridomas (28 selected)
T1 construct: purchased R&D Systems 3230-A5
T1 sequence (P08648 42-894 limits assumed): as the sequence (P08648 42-894 limits assumed) above
T1 sequence (P08648 895-995 limits assumed): as the sequence (P08648 895-995 limits assumed) above
T1 sequence (P05556 21-728 limits assumed): as the sequence (P05556 21-728 limits assumed) above
Procedure: The 249 positive hybridoma supernatants selected as described in Example 1 were screened for reactivity to rh-α5β1 in a plate-based ELISA. Immulon4 HBX ELISA 96-well plates (Thermo Fisher Scientific, Waltham, MA, cat. no. 3855) were coated with rh-α5β1 (R&D Systems, Minneapolis, MN 55413, cat. no. 3230-A5), at 1 μg/mL in PBS supplemented with 0.5 mM MgCl2, MnCl2 and CaCl2 and incubated overnight at 4° C. Plates were washed 3 times with Wash Buffer (1× Tris Buffered Saline containing 0.05% Tween20), blocked with 2% BSA in 1×TBS (made from 10× Thermo Scientific Blocker BSA (10×) in TBS; Thermo Fisher Scientific, Waltham, MA, cat. no. 37520) for 2 hours at room temperature (RT) then incubated with hybridoma supernatants diluted 1:10 with Standard Diluent (2% BSA, 1×TBS, 0.05% Tween20). Following a 1 hour incubation at RT, wells were washed 3 times, incubated with biotinylated goat anti-mouse secondary antibody at 1:8000 dilution (Invitrogen, Carlsbad, CA, cat. no. 62-6540) for 1 hour, washed 3 times, then incubated for 30 minutes with poly-HRP Streptavidin (Thermo Fisher Scientific, Waltham, MA, cat. no. N200), washed 4 times, incubated with TMB (Thermo Fisher Scientific, Waltham, MA, cat. no. N301) for 5-10 minutes, followed by addition of ELISA Stop Solution (Invitrogen, Carlsbad, CA, cat. no. SS04). Absorbance 450 nm was measured.

Molecule | binding of rh-α5β1 complexed with antibody to A2-7A05 on the sensor (rh-α5β1; antibody preincubated with rh-α5β1, A2-7A05 immobilized on sensor) | Response (nm) (rh-α5β1; immobilized mAb A2-7A05) | % Response (rh-α5β1; immobilized mAb A2-7A05) [%] | Response (nm) (rh-α5β1; immobilized mAb A-15B08) | % Response (rh-α5β1; immobilized mAb A-15B08) [%] | Response (nm) (rh-α5β1; immobilized mAb C-14D12) | % Response (rh-α5β1; immobilized mAb C-14D12) [%] | epitope group (rh-α5β1) | Selected Human α5 Specific [1] | binding of rh-α5β1 complexed with antibody to A-15B08 on the sensor (rh-α5β1; antibody preincubated with rh-α5β1, A-15B08 immobilized on sensor) | binding of rh-α5β1 complexed with antibody to C-14D12 on the sensor (rh-α5β1; antibody preincubated with rh-α5β1, C-14D12 immobilized on sensor)
B1 | able to bind | 0.17 | 448.38 | 0.22 | 106.82 | 0.24 | 106.12 | second group | Yes | – | –
B2 | – | −0.17 | −472.70 | 0.29 | 142.59 | 0.30 | 133.09 | one group | Yes | able to bind | able to bind
